{
  "source": "patent US8529881B2",
  "about": "“Peptides for active anti-cytokine immunization” (Vaxconsulting, priority 2002, dated 2013)",
  "key": {"[1]": {"molecular_target": "T1, human TGFβ2 (native cytokine) (Homo sapiens, UniProt P61812)", "T1 sequence (P61812 303-414 limits assumed)": "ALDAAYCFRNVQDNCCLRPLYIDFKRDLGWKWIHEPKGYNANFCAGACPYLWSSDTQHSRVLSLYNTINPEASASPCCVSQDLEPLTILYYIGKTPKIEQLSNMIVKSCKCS", "assay": "ELISA of serum from immunized mice with native TGFβ2", "format": "in vivo", "conditions": "serum day 60"}, "[2]": {"molecular_target": "T2, human IL18 (native cytokine) (Homo sapiens, UniProt Q14116)", "T2 sequence (Q14116 37-193)": "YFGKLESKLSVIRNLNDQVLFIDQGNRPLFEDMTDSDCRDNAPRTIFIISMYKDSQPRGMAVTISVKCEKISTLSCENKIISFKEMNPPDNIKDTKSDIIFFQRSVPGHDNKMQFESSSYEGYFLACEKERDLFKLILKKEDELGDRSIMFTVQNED", "assay": "ELISA of serum from immunized mice with native IL18", "format": "in vivo", "conditions": "serum day 60"}, "[3]": {"molecular_target": "human IL12p40 (native cytokine) (Homo sapiens, UniProt P29460)", "sequence (P29460 23-328)": "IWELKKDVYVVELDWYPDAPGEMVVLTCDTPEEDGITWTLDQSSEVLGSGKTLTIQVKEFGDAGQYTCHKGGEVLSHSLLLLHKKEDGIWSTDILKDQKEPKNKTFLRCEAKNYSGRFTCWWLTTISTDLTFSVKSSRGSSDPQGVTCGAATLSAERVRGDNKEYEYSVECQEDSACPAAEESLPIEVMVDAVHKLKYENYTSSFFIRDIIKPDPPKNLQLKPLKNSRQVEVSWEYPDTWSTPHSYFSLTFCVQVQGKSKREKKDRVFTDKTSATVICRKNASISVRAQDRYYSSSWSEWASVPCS", "conditions": "in vivo"}, "[4]": {"molecular_target": "human IL10 (native cytokine) (Homo sapiens, UniProt P22301)", "sequence (P22301 19-178)": "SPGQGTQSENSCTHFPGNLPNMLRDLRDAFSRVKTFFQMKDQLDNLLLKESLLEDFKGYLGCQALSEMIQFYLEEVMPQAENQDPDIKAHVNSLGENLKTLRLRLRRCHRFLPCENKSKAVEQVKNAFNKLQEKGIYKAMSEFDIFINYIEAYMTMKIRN", "assay": "ELISA of serum from immunized mice with native IL10", "format": "in vivo", "conditions": "serum day 60"}, "[5]": {"tested_on": "human vEGF (native cytokine)", "assay": "ELISA of serum from immunized mice with native vEGF", "format": "in vivo", "conditions": "serum day 60"}, "native TNFα cytokine": {"molecular_target": "native TNFα cytokine (Homo sapiens, UniProt P01375)", "sequence (P01375 77-233 limits assumed)": "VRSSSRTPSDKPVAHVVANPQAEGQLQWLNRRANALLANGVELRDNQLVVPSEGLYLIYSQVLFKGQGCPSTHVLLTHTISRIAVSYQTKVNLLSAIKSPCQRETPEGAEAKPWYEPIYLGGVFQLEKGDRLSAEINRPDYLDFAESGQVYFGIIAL", "assay": "Neutralization of native TNFα by mouse serum, lysis of L929 cells", "format": "cell-based", "conditions": "for percentage inhibition of the lysis (neutralization of the TNFα): 50 units TNFα, 24 hours", "experimental": "The existence of antibodies neutralizing the native cytokine was evaluated as follows: 50 units of native TNFα cytokine are preincubated with serum from mice (immunized or control) diluted 1/200th over 2 hours at 37° C. The whole is then added to L929 cells, with 25,000 cells per microwell. The lysis of the cells is evaluated after 24 hours by staining with naphthol blue black (Sigma)."}, "[6]": {"molecular_target": "human TNFα (native cytokine) (Homo sapiens, UniProt P01375)", "sequence (P01375 77-233 limits assumed)": "as above", "assay": "ELISA of serum from immunized mice with native TNFα", "format": "in vivo", "conditions": "serum day 60"}, "[7]": {"molecular_target": "T3, human IP10 (native cytokine) (Homo sapiens, UniProt P02778)", "T3 sequence (P02778 22-98)": "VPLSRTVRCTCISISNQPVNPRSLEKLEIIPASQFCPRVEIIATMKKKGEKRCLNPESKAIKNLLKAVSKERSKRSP", "assay": "ELISA of serum from immunized mice with native IP10", "format": "in vivo", "conditions": "serum day 60"}, "[8]": {"molecular_target": "T4, human IL5 (native cytokine) (Homo sapiens, UniProt P05113)", "T4 sequence (P05113 20-134)": "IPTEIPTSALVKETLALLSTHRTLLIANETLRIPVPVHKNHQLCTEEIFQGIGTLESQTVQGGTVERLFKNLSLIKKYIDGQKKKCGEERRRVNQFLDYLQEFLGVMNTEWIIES", "assay": "ELISA of serum from immunized mice with native IL5", "format": "in vivo", "conditions": "serum day 60"}, "[9]": {"molecular_target": "human IFNγ (native cytokine) (Homo sapiens, UniProt P01579)", "sequence (P01579 24-161)": "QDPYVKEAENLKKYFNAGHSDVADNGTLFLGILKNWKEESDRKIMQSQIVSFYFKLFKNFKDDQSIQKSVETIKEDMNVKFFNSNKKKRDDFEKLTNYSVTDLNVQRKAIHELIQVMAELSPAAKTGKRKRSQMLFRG", "conditions": "in vivo"}, "IFNγ (native cytokine)": {"tested_on": "IFNγ (native cytokine)", "format": "cell-based, human"}, "[10]": {"molecular_target": "T5, human IL4 (native cytokine) (Homo sapiens, UniProt P05112)", "T5 sequence (P05112 25-153)": "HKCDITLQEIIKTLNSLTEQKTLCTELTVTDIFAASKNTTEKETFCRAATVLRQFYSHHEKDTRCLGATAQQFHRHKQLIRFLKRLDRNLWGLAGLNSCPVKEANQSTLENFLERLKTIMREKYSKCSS", "assay": "ELISA of serum from immunized mice with native IL4", "format": "in vivo", "conditions": "serum day 60"}},
  "note": "Several values for one entry are separate records, joined by “and”; a condition that tells them apart may be missing. Identical values can stand only once. Positions of bridges follow the written chain, without caps; N, C: chain ends. No end group written: not given here.",
  "data": [
    {"sequence": "DTILYYIGKTPKIE (also: KLH conjugate via carbodiimide; listed as Homo sapiens) [Example 11, peptide corresponding to human TGFβ2, D added, coupled with KLH]", "values": [
      {"measurement": "average absorbance, ELISA native TGFβ2", "setting": "[1]; Average of 5 mice", "value": 1.07},
      {"measurement": "average absorbance, ELISA native TGFβ2", "setting": "[1]; Mouse 1", "value": 0.95},
      {"measurement": "average absorbance, ELISA native TGFβ2", "setting": "[1]; Mouse 2", "value": 1.15},
      {"measurement": "average absorbance, ELISA native TGFβ2", "setting": "[1]; Mouse 3", "value": 0.99},
      {"measurement": "average absorbance, ELISA native TGFβ2", "setting": "[1]; Mouse 4", "value": 1.17},
      {"measurement": "average absorbance, ELISA native TGFβ2", "setting": "[1]; Mouse 5", "value": 1.08}
    ]},
    {"sequence": "KYFGKLESKLSVIRNLNDQVLFID (also: KLH conjugate via glutaraldehyde; listed as Homo sapiens) [Example 8, peptide originating from human IL18, K added, coupled with KLH]", "values": [
      {"measurement": "average absorbance, ELISA native IL18", "setting": "[2]; Average of 5 mice", "value": 1.35},
      {"measurement": "average absorbance, ELISA native IL18", "setting": "[2]; Mouse 1", "value": 1.85},
      {"measurement": "average absorbance, ELISA native IL18", "setting": "[2]; Mouse 2", "value": 1.13},
      {"measurement": "average absorbance, ELISA native IL18", "setting": "[2]; Mouse 3", "value": 0.99},
      {"measurement": "average absorbance, ELISA native IL18", "setting": "[2]; Mouse 4", "value": 1.24},
      {"measurement": "average absorbance, ELISA native IL18", "setting": "[2]; Mouse 5", "value": 1.54}
    ]},
    {"sequence": "KKEDGIWSTDILKDQKEPKNKTFLRCE [Example 7]", "values": [
      {"measurement": "average absorbance, ELISA native IL12p40", "setting": "[3]", "value": "0.95 and 1.06 and 1.58 and 1.14 and 0.87 and 1.12"}
    ]},
    {"sequence": "DECNMLRDLRDAFSRVKTFFQMKDQLDNC (disulfide 3-29 (inferred); also: KLH conjugate; listed as Homo sapiens) [Example 5, cyclic peptide originating from human IL10 coupled with KLH]", "values": [
      {"measurement": "average absorbance, ELISA native IL10", "setting": "[4]; Average of 5 mice", "value": 1.44},
      {"measurement": "average absorbance, ELISA native IL10", "setting": "[4]; Mouse 1", "value": 1.94},
      {"measurement": "average absorbance, ELISA native IL10", "setting": "[4]; Mouse 2", "value": 0.96},
      {"measurement": "average absorbance, ELISA native IL10", "setting": "[4]; Mouse 3", "value": 1.85},
      {"measurement": "average absorbance, ELISA native IL10", "setting": "[4]; Mouse 4", "value": 0.97},
      {"measurement": "average absorbance, ELISA native IL10", "setting": "[4]; Mouse 5", "value": 1.5}
    ]},
    {"sequence": "KPHQGQHIGEMS (also: KLH conjugate via glutaraldehyde; listed as Homo sapiens) [Example 2, synthetic peptide originating from human vEGF coupled to KLH]", "values": [
      {"measurement": "average absorbance, ELISA native vEGF", "setting": "[5]; Average of 5 mice", "value": 1.19},
      {"measurement": "average absorbance, ELISA native vEGF", "setting": "[5]; Mouse 1", "value": 1.50},
      {"measurement": "average absorbance, ELISA native vEGF", "setting": "[5]; Mouse 2", "value": 1.00},
      {"measurement": "average absorbance, ELISA native vEGF", "setting": "[5]; Mouse 3", "value": 0.86},
      {"measurement": "average absorbance, ELISA native vEGF", "setting": "[5]; Mouse 4", "value": 0.98},
      {"measurement": "average absorbance, ELISA native vEGF", "setting": "[5]; Mouse 5", "value": 1.63}
    ]},
    {"sequence": "KYQAEGQLQWLNRRANALLANGVELRDNQL (also: KLH conjugate via diazobenzidine; listed as Homo sapiens) [Example 3, synthetic peptide originating from human TNFα, K and Y added, coupled to KLH]", "values": [
      {"measurement": "percentage inhibition of the lysis (neutralization of the TNFα)", "setting": "native TNFα cytokine; Average of 5 mice, serum diluted 1/200th", "value": 61, "unit": "%"},
      {"measurement": "percentage inhibition of the lysis (neutralization of the TNFα)", "setting": "native TNFα cytokine; Mouse 1, serum diluted 1/200th", "value": 88, "unit": "%"},
      {"measurement": "percentage inhibition of the lysis (neutralization of the TNFα)", "setting": "native TNFα cytokine; Mouse 2, serum diluted 1/200th", "value": 12, "unit": "%"},
      {"measurement": "percentage inhibition of the lysis (neutralization of the TNFα)", "setting": "native TNFα cytokine; Mouse 3, serum diluted 1/200th", "value": 93, "unit": "%"},
      {"measurement": "percentage inhibition of the lysis (neutralization of the TNFα)", "setting": "native TNFα cytokine; Mouse 4, serum diluted 1/200th", "value": 36, "unit": "%"},
      {"measurement": "percentage inhibition of the lysis (neutralization of the TNFα)", "setting": "native TNFα cytokine; Mouse 5, serum diluted 1/200th", "value": 79, "unit": "%"},
      {"measurement": "neutralization of the TNFα, result in words", "setting": "native TNFα cytokine; serum of immunized mice vs controls", "value": "responses are observed for the immunized mice"},
      {"measurement": "average absorbance, ELISA native TNFα", "setting": "[6]; Average of 5 mice", "value": 1.31},
      {"measurement": "average absorbance, ELISA native TNFα", "setting": "[6]; Mouse 1", "value": 1.64},
      {"measurement": "average absorbance, ELISA native TNFα", "setting": "[6]; Mouse 2", "value": 1.14},
      {"measurement": "average absorbance, ELISA native TNFα", "setting": "[6]; Mouse 3", "value": 1.96},
      {"measurement": "average absorbance, ELISA native TNFα", "setting": "[6]; Mouse 4", "value": 1.02},
      {"measurement": "average absorbance, ELISA native TNFα", "setting": "[6]; Mouse 5", "value": 0.78}
    ]},
    {"sequence": "KKKGEKRCLNPESKA [Example 9]", "values": [
      {"measurement": "average absorbance, ELISA native IP10", "setting": "[7]; Average of 5 mice", "value": 1.07},
      {"measurement": "average absorbance, ELISA native IP10", "setting": "[7]; Mouse 1", "value": 1.16},
      {"measurement": "average absorbance, ELISA native IP10", "setting": "[7]; Mouse 2", "value": 0.98},
      {"measurement": "average absorbance, ELISA native IP10", "setting": "[7]; Mouse 3", "value": 1.24},
      {"measurement": "average absorbance, ELISA native IP10", "setting": "[7]; Mouse 4", "value": 1.09},
      {"measurement": "average absorbance, ELISA native IP10", "setting": "[7]; Mouse 5", "value": 0.88}
    ]},
    {"sequence": "KLQEFLGVMNTEWI (also: KLH conjugate via glutaraldehyde; listed as Homo sapiens) [Example 10, peptide corresponding to human IL5, K added, coupled with KLH]", "values": [
      {"measurement": "average absorbance, ELISA native IL5", "setting": "[8]; Average of 5 mice", "value": 1.26},
      {"measurement": "average absorbance, ELISA native IL5", "setting": "[8]; Mouse 1", "value": 1.25},
      {"measurement": "average absorbance, ELISA native IL5", "setting": "[8]; Mouse 2", "value": 1.21},
      {"measurement": "average absorbance, ELISA native IL5", "setting": "[8]; Mouse 3", "value": 1.87},
      {"measurement": "average absorbance, ELISA native IL5", "setting": "[8]; Mouse 4", "value": 1.10},
      {"measurement": "average absorbance, ELISA native IL5", "setting": "[8]; Mouse 5", "value": 0.88}
    ]},
    {"sequence": "KKYFNAGHSDVADNGTLFLGILKN [Example 4]", "values": [
      {"measurement": "average absorbance, ELISA native IFNγ", "setting": "[9]", "value": "1.56 and 1.05 and 0.98 and 1.80 and 1.64 and 1.41"},
      {"measurement": "neutralization of the IFNγ, result in words", "setting": "IFNγ (native cytokine)", "value": "inhibitions are observed for the immunized mice"}
    ]},
    {"sequence": "KQLIRFLKRLDRNLWGLAG (also: KLH conjugate via glutaraldehyde; listed as Homo sapiens) [Example 6, peptide corresponding to human IL4 coupled with KLH]", "values": [
      {"measurement": "average absorbance, ELISA native IL4", "setting": "[10]; Average of 5 mice", "value": 1.07},
      {"measurement": "average absorbance, ELISA native IL4", "setting": "[10]; Mouse 1", "value": 1.06},
      {"measurement": "average absorbance, ELISA native IL4", "setting": "[10]; Mouse 2", "value": 1.25},
      {"measurement": "average absorbance, ELISA native IL4", "setting": "[10]; Mouse 3", "value": 0.95},
      {"measurement": "average absorbance, ELISA native IL4", "setting": "[10]; Mouse 4", "value": 0.87},
      {"measurement": "average absorbance, ELISA native IL4", "setting": "[10]; Mouse 5", "value": 1.24}
    ]}
  ]
}
